{"source": "paper PMC12283743", "origin": "cited, not measured here", "tested_on": "H. pylori surface recombinant antigen (not named) (Helicobacter pylori)", "conditions": "target of the Kd cut off in the material (recombinant antigen or cells); Sensor only: bacteria incubated 40 min on the aptamer electrode, detection in PBS pH 7.0 (0.1 M for CV), room temperature; conditions of the cited Kd not given", "data": [{"sequence": "AGTGTGCTCTTCTCAGGTCTCGGCGCGGTTGTGGGTACCTAGGGTTGTTGTTGCTTCTCAGCAGTGTCTCAGCATACGCA [H. pylori aptamer]", "values": [{"measurement": "Kd", "result": 26, "unit": "nM"}]}]}
